Measurements taken from IntAct's records for PubMed 31515488.

B1: Tektin-4 (Homo sapiens), Q8WW24 (parent)
chain: MAQTVPPCELPCKEYDVARNTGAYTSSGLATASFRTSKYLLEEWFQNCYARYHQAFADRDQSERQRHESQQLATETQALAQRTQQDSTRTVGERLQDTHSWKSELQREMEALAAETNLLLAQKQRLERALDATEVPFSITTDNLQCRERREHPNLVRDHVETELLKEAELIRNIQELLKRTIMQAVSQIRLNREHKETCEMDWSDKMEAYNIDETCGRHHSQSTEVQAHPYSTTFQESASTPETRAKFTQDNLCRAQRERLASANLRVLVDCILRDTSEDLRLQCDAVNLAFGRRCEELEDARYKLHHHLHKTLREITDQEHNVAALKQAIKDKEAPLHVAQTRLYLRSHRPNMELCRDAAQFRLLSEVEELNMSLTALREKLLEAEQSLRNLEDIHMSLEKDIAAMTNSLFIDRQKCMAHRTRYPTILQLAGYQ
partner: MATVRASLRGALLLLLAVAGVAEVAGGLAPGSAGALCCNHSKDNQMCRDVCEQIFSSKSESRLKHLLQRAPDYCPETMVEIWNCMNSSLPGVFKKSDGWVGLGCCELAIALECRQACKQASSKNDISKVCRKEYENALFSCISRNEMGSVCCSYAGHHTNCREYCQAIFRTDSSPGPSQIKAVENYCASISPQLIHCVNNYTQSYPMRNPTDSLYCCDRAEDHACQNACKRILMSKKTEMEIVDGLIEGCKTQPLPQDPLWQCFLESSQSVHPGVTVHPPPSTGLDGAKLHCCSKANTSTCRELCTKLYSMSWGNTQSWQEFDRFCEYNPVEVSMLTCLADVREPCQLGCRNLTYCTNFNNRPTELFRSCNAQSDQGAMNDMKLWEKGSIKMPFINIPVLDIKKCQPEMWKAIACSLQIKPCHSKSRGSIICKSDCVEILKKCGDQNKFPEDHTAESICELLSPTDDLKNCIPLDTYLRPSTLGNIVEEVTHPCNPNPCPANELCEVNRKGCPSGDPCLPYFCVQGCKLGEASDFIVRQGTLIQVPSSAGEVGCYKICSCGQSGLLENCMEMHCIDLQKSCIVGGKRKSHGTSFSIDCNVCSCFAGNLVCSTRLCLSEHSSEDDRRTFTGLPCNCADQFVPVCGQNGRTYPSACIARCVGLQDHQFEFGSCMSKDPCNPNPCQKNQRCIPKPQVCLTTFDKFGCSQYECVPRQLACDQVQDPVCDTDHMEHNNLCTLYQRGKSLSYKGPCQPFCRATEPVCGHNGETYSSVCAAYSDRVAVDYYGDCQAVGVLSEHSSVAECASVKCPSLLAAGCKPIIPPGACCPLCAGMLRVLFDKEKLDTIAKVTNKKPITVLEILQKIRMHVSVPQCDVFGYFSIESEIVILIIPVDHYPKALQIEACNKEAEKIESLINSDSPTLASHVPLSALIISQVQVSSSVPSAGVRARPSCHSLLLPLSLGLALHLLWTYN
B2: Paraneoplastic antigen-like protein 5 (Homo sapiens), Q96PV4 (parent)
chain: MALTLLEDWCKGMDMDPRKALLIVGIPMECSEVEIQDTVKAGLQPLCAYRVLGRMFRREDNAKAVFIELADTVNYTTLPSHIPGKGGSWEVVVKPRNPDDEFLSRLNYFLKDEGRSMTDVARALGCCSLPAESLDAEVMPQVRSPPLEPPKESMWYRKLKVFSGTASPSPGEETFEDWLEQVTEIMPIWQVSEVEKRRRLLESLRGPALSIMRVLQANNDSITVEQCLDALKQIFGDKEDFRASQFRFLQTSPKIGEKVSTFLLRLEPLLQKAVHKSPLSVRSTDMIRLKHLLARVAMTPALRGKLELLDQRGCPPNFLELMKLIRDEEEWENTEAVMKNKEKPSGRGRGASGRQARAEASVSAPQATVQARSFSDSSPQTIQGGLPPLVKRRRLLGSESTRGEDHGQATYPKAENQTPGREGPQAAGEELGNEAGAGAMSHPKPWET
partner: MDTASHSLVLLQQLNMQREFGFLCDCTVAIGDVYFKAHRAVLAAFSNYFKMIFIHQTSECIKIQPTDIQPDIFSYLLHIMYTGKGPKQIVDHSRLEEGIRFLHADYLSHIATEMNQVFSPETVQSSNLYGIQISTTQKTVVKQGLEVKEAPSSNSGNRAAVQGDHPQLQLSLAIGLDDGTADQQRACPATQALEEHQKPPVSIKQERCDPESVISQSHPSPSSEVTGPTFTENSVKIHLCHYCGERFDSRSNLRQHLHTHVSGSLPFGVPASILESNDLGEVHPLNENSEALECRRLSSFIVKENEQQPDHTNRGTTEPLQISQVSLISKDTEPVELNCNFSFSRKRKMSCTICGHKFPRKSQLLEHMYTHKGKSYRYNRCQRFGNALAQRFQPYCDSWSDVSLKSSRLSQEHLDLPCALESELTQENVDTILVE
B3: Methylthioribulose-1-phosphate dehydratase (Homo sapiens), Q96GX9 (parent)
chain: MSGCDAREGDCCSRRCGAQDKEHPRYLIPELCKQFYHLGWVTGTGGGISLKHGDEIYIAPSGVQKERIQPEDMFVCDINEKDISGPSPSKKLKKSQCTPLFMNAYTMRGAGAVIHTHSKAAVMATLLFPGREFKITHQEMIKGIKKCTSGGYYRYDDMLVVPIIENTPEEKDLKDRMAHAMNEYPDSCAVLVRRHGVYVWGETWEKAKTMCECYDYLFDIAVSMKKVGLDPSQLPVGENGIV
partner: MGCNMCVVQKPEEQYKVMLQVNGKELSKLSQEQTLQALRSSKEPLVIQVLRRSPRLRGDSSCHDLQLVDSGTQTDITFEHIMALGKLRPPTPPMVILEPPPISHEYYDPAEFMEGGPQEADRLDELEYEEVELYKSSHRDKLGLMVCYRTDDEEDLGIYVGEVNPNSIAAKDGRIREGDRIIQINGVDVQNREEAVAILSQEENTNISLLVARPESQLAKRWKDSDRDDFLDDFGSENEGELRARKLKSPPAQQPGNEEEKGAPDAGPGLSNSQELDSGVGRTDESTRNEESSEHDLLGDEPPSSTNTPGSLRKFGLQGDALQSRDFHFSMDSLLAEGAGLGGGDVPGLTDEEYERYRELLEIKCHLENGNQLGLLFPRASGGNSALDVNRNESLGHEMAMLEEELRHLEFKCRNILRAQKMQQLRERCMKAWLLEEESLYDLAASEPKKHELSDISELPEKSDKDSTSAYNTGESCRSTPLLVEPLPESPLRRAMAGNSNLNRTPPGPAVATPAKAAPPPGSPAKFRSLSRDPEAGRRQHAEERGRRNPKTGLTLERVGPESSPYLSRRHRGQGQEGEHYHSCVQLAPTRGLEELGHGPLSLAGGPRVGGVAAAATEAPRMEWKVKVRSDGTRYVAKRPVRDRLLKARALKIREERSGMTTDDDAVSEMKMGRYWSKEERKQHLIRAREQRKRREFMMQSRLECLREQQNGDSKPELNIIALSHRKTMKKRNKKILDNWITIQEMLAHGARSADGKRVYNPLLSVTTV
B4: Thioredoxin-dependent peroxide reductase, mitochondrial (Homo sapiens), P30048 (parent)
chain: MAAAVGRLLRASVARHVSAIPWGISATAALRPAACGRTSLTNLLCSGSSQAKLFSTSSSCHAPAVTQHAPYFKGTAVVNGEFKDLSLDDFKGKYLVLFFYPLDFTFVCPTEIVAFSDKANEFHDVNCEVVAVSVDSHFSHLAWINTPRKNGGLGHMNIALLSDLTKQISRDYGVLLEGSGLALRGLFIIDPNGVIKHLSVNDLPVGRSVEETLRLVKAFQYVETHGEVCPANWTPDSPTIKPSPAASKEYFQKVNQ
B5: Mediator of RNA polymerase II transcription subunit 20 (Homo sapiens), Q9H944 (parent)
chain: MGVTCVSQMPVAEGKSVQQTVELLTRKLEMLGAEKQGTFCVDCETYHTAASTLGSQGQTGKLMYVMHNSEYPLSCFALFENGPCLIADTNFDVLMVKLKGFFQSAKASKIETRGTRYQYCDFLVKVGTVTMGPSARGISVEVEYGPCVVASDCWSLLLEFLQSFLGSHTPGAPAVFGNRHDAVYGPADTMVQYMELFNKIRKQQQVPVAGIR
partner: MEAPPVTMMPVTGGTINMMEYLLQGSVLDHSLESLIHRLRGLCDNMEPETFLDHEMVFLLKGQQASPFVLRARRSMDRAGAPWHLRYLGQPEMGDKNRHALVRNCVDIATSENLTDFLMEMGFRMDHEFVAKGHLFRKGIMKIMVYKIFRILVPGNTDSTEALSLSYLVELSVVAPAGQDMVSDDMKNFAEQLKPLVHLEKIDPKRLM
B6: Src kinase-associated phosphoprotein 1 (Homo sapiens), Q86WV1 (parent)
chain: MQAAALPEEIRWLLEDAEEFLAEGLRNENLSAVARDHRDHILRGFQQIKARYYWDFQPQGGDIGQDSSDDNHSGTLGLSLTSDAPFLSDYQDEGMEDIVKGAQELDNVIKQGYLEKKSKDHSFFGSEWQKRWCVVSRGLFYYYANEKSKQPKGTFLIKGYGVRMAPHLRRDSKKESCFELTSQDRRSYEFTATSPAEARDWVDQISFLLKDLSSLTIPYEEDEEEEEKEETYDDIDGFDSPSCGSQCRPTILPGSVGIKEPTEEKEEEDIYEVLPDEEHDLEEDESGTRRKGVDYASYYQGLWDCHGDQPDELSFQRGDLIRILSKEYNMYGWWVGELNSLVGIVPKEYLTTAFEVEER
B7: U3 small nucleolar RNA-associated protein 14 homolog A (Homo sapiens), Q9BVJ6 (parent)
chain: MTANRLAESLLALSQQEELADLPKDYLLSESEDEGDNDGERKHQKLLEAISSLDGKNRRKLAERSEASLKVSEFNVSSEGSGEKLVLADLLEPVKTSSSLATVKKQLSRVKSKKTVELPLNKEEIERIHREVAFNKTAQVLSKWDPVVLKNRQAEQLVFPLEKEEPAIAPIEHVLSGWKARTPLEQEIFNLLHKNKQPVTDPLLTPVEKASLRAMSLEEAKMRRAELQRARALQSYYEAKARREKKIKSKKYHKVVKKGKAKKALKEFEQLRKVNPAAALEELEKIEKARMMERMSLKHQNSGKWAKSKAIMAKYDLEARQAMQEQLSKNKELTQKLQVASESEEEEGGTEDVEELLVPDVVNEVQMNADGPNPWMLRSCTSDTKEAATQEDPEQLPELEAHGVSESEGEERPVAEEEILLREFEERRSLRKRSELSQDAEPAGSQETKDSGSQEVLSELRVLSQKLKENHQSRKQKASSEGTIPQVQREEPAPEEEEPLLLQRPERVQTLEELEELGKEECFQNKELPRPVLEGQQSERTPNNRPDAPKEKKKKEQMIDLQNLLTTQSPSVKSLAVPTIEELEDEEERNHRQMIKEAFAGDDVIRDFLKEKREAVEASKPKDVDLTLPGWGEWGGVGLKPSAKKRRRFLIKAPEGPPRKDKNLPNVIINEKRNIHAAAHQVRVLPYPFTHHWQFERTIQTPIGSTWNTQRAFQKLTTPKVVTKPGHIINPIKAEDVGYRSSSRSDLSVIQRNPKRITTRHKKQLKKCSVD
partner: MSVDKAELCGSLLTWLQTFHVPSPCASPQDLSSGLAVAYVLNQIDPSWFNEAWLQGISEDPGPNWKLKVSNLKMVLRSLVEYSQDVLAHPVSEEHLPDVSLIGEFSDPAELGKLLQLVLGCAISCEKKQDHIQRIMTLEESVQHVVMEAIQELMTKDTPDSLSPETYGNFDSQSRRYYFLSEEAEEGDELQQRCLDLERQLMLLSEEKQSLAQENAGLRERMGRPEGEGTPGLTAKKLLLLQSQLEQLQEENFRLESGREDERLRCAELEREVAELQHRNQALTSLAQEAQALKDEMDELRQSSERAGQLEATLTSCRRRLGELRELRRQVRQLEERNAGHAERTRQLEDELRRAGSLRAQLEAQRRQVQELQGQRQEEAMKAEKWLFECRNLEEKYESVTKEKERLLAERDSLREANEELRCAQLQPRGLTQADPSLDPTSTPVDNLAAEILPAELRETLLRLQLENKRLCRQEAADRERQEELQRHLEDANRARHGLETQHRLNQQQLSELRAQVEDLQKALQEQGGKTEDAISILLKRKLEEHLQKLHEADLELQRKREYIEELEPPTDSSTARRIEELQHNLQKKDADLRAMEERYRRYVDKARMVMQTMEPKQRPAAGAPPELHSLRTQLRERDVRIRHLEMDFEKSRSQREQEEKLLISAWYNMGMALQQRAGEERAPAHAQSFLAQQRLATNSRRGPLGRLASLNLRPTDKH

Variants of: B1
Conditions: with reck_human RECK

Variant	effect of a mutation on the interaction
D403N	with no effect
C272S	with no effect

Variants of: B2
Conditions: with zbt25_human ZBTB25, P24278

Variant	effect of a mutation on the interaction
T261A	with no effect
L21Q	disrupting interaction strength
V274M	with no effect
R312Q	with no effect

Variants of: B3
Conditions: with pdzd4_human PDZD4, Q76G19

Variant	effect of a mutation on the interaction
G111A	with no effect
M181V	with no effect

Variants of: B4
Conditions: with gors2_human GORASP2, Q9H8Y8

Variant	effect of a mutation on the interaction
G173C	with no effect

Variants of: B5
Conditions: with med18_human MED18, Q9BUE0

Variant	effect of a mutation on the interaction
A50T	with no effect

Variants of: B6
Conditions: with pram_human PRAM1, Q96QH2
pram_human PRAM1, Q96QH2, sequence (Q96QH2 whole entry): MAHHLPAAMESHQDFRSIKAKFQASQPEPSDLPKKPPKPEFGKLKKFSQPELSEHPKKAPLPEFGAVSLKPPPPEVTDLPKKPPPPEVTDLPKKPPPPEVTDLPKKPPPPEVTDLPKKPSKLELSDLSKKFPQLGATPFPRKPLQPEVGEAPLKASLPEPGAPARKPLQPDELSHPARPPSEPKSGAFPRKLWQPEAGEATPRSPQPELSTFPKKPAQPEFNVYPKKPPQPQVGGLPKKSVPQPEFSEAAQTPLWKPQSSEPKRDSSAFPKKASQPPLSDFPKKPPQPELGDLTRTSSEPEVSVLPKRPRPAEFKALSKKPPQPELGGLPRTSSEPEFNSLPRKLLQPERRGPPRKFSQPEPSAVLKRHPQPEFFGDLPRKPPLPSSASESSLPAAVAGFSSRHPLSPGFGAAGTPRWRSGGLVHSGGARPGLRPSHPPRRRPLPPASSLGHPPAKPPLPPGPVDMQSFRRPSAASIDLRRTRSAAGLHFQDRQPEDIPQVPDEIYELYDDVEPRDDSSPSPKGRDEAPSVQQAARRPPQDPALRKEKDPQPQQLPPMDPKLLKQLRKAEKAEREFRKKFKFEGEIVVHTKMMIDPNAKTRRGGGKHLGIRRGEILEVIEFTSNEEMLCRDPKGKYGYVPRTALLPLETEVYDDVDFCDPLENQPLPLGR

Variant	effect of a mutation on the interaction
G161S	with no effect

Variants of: B6
Conditions: with eeig1_human EEIG1, Q5T9C2
eeig1_human EEIG1, Q5T9C2, sequence (Q5T9C2 whole entry): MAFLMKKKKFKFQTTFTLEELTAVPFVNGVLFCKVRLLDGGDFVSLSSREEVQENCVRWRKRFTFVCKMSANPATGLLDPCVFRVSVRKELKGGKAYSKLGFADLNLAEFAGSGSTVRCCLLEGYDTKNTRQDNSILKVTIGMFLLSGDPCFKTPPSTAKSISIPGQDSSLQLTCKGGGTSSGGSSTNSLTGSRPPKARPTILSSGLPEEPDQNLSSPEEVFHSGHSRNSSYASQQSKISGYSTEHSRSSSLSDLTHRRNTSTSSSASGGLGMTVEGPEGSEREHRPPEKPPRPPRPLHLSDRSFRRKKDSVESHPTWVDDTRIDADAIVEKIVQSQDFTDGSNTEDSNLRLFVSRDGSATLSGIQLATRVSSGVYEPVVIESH

Variant	effect of a mutation on the interaction
S242G	with no effect

Variants of: B7
Conditions: with hook2_human HOOK2, Q96ED9

Variant	effect of a mutation on the interaction
V256M	with no effect
